Experimental findings from patent publication US20210388087A1 (Chugai, published 2021) are described below.

B1: dBBDu183H K64S / dBBDu072L (antibody, name in Kabat numbering, V domains shown)
VH: QVQLVESGGGLVQPGRSLRLSCAASGFTFSNAWMHWVRQAPGKGLEWVAQIKDKGNAYAAYYAPSVSGRFTISRDDSKNSIYLQMNSLKTEDTAVYYCHYVHYASASTVLPAFGVDAWGQGTTVTVSS
VL: DIVMTQSPLSLPVTPGEPASISCQASQELVHMNRNTYLHWYQQKPGQAPRLLIYKVSNRFPGVPDRFSGSGSGTDFTLKISRVEAEDVGVYYCAQGTSVPFTFGQGTKLEIK
notes: as m1, one VH change
B2: dBBDu183H K64V / dBBDu072L (antibody, name in Kabat numbering, V domains shown)
VH: B1 VH with S67V
VL: B1 VL
notes: as m1, one VH change
B3: dBBDu183H L100dW / dBBDu072L (antibody, name in Kabat numbering, V domains shown)
VH: B1 VH with S67K, L110W
VL: B1 VL
notes: as m1, one VH change
B4: dBBDu183H P61K / dBBDu072L (antibody, name in Kabat numbering, V domains shown)
VH: B1 VH with P64K, S67K
VL: B1 VL
notes: as m1, one VH change
B5: dBBDu183H K64Y / dBBDu072L (antibody, name in Kabat numbering, V domains shown)
VH: B1 VH with S67Y
VL: B1 VL
notes: as m1, one VH change
B6: dBBDu183H L100dK / dBBDu072L (antibody, name in Kabat numbering, V domains shown)
VH: B1 VH with S67K, L110K
VL: B1 VL
notes: as m1, one VH change
B7: dBBDu183H L100dQ / dBBDu072L (antibody, name in Kabat numbering, V domains shown)
VH: B1 VH with S67K, L110Q
VL: B1 VL
notes: as m1, one VH change
B8: dBBDu183H P61F / dBBDu072L (antibody, name in Kabat numbering, V domains shown)
VH: B1 VH with P64F, S67K
VL: B1 VL
notes: as m1, one VH change
B9: dBBDu183H K64W / dBBDu072L (antibody, name in Kabat numbering, V domains shown)
VH: B1 VH with S67W
VL: B1 VL
notes: as m1, one VH change
B10: dBBDu183H L100dV / dBBDu072L (antibody, name in Kabat numbering, V domains shown)
VH: B1 VH with S67K, L110V
VL: B1 VL
notes: as m1, one VH change
B11: dBBDu183H P61E / dBBDu072L (antibody, name in Kabat numbering, V domains shown)
VH: B1 VH with P64E, S67K
VL: B1 VL
notes: as m1, one VH change
B12: dBBDu183H L100dS / dBBDu072L (antibody, name in Kabat numbering, V domains shown)
VH: B1 VH with S67K, L110S
VL: B1 VL
notes: as m1, one VH change
B13: dBBDu183H P61D / dBBDu072L (antibody, name in Kabat numbering, V domains shown)
VH: B1 VH with P64D, S67K
VL: B1 VL
notes: as m1, one VH change
B14: dBBDu183H P61H / dBBDu072L (antibody, name in Kabat numbering, V domains shown)
VH: B1 VH with P64H, S67K
VL: B1 VL
notes: as m1, one VH change
B15: dBBDu183H P61G / dBBDu072L (antibody, name in Kabat numbering, V domains shown)
VH: B1 VH with P64G, S67K
VL: B1 VL
notes: as m1, one VH change
B16: dBBDu183H K64T / dBBDu072L (antibody, name in Kabat numbering, V domains shown)
VH: B1 VH with S67T
VL: B1 VL
notes: as m1, one VH change
B17: dBBDu183H L100dE / dBBDu072L (antibody, name in Kabat numbering, V domains shown)
VH: B1 VH with S67K, L110E
VL: B1 VL
notes: as m1, one VH change

Positions count from the first letter of the chain named. In names and notes the source's numbering stands.

In the experiment the target is T1, Human CD137 ECD (human).
T1 construct: also called 4-1BB
T1 sequence (chain, as listed by the source limits assumed): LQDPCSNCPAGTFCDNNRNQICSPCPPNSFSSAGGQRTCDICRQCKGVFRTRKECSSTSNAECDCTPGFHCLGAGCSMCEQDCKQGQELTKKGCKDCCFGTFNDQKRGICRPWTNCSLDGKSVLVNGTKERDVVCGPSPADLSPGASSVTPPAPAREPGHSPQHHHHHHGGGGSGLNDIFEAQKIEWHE
In words: SPR, vs parent H183/L072. (In SPR one partner is held on a chip, and binding of the other changes the refractive index at the surface.)
For the molecule B1, the “fold change of affinity” value came to 1.2 fold.
The value for B2 was 1 fold; that for B3 was 0.2 fold; that for B4 was 0.8 fold.
The value for B5 was 1.1 fold; that for B6 was 0.7 fold.
As for B7, the “fold change of affinity” value was 0.5 fold.
Consider B8, for which the “fold change of affinity” value is 0.7 fold.
Turning to B9, the “fold change of affinity” value worked out at 1.2 fold.
With B10 the figure was 0.5 fold; with B11, 0.7 fold; with B12, 0.5 fold.
The value for B13 was 0.7 fold.
With B14 the figure was 0.9 fold; with B15, 1 fold; with B16, 1.1 fold.
For the molecule B17, the “fold change of affinity” value came to 0.4 fold.
